Assay: yeast display, Sf9 membrane polyspecificity reagent, FACS + sequencing; frameworks hold sequencing errors
Procedure, shortened: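 A nanobody's polyreactivity label depends on the gate it was sorted from. Yeast display cells were stained with 10% biotinylated, detergent-solubilized Sf9 membrane reagent for 1 hour at 4 °C, enriched on streptavidin microbeads and sorted by FACS. The low and high (top ~1%) gates were set on anti-HA fluorescence for expression and streptavidin fluorescence for reagent binding.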

Row | Sequence | polyreactivity (PSR sort gate)
1 | QVHLVESGGGLVQAGGSLRLSCAASGRTFIRYTMGWYRQAPGKEREFVAAINTSGGRTYYADSVKGRFTISRDNAKNTVYLQMNSLKPEDTAVYYCAAGYSASRKVDYWGQGTQVTVSS | high polyreactivity
2 | QVQLVESGGGLVQAGGSLRLSCAASGRIFDANVMGGYRQAPGKERELVAAISSGGRTKYADSVKGRFTISRDNAKNTVYLQMNSLKPEDTAVYYCAKKHSPLYDYWGQGTQVTVSS | low polyreactivity
3 | QVQLVESGGGLVQAGGSLRLSCAASGRTFYYYAMGWYRQAPGKERELVAAINWSSGSTYYADSVKGRFTISRDNAKNTVYLQMNSLKPEDTAVYYCNAESRWYIIPYGDFDYWGQGTQVTVSS | low polyreactivity
4 | QVQLVDSGGGLVQAGGSLRLSCAASGRTSYENAMGWYREAPGKERELVAAINVSGGSTYYADSVKGRFTISRDNAKNTVYLQMNSLKPEDTAVYYCAADNPYADARSSWYEYNDWGQGTQVTVSS | high polyreactivity
5 | QVQLVESGGGLVQAGGSLRLSCAASGSTFLTYAMGWYRQAPGKERELVAGISYSTGSTYYADSVKGRFTISRDNAKNTVYLQMHSLKPEDTAVYYCAADEWDGLRYYYYFNYEYWGQGTQVTVSS | low polyreactivity
6 | QVQLVESGGGLVQAGGSLRLSCAASGGIFGYYAMGWYRQAPGKEREFVAAITARGGRTYYADSVKGRFTISRDNAKNTVYLQMNSLKPEDTAVYYCAAYSPVWGRYYHRVERDYWGQGTQVTVSS | high polyreactivity
7 | QVQLVESGGGLVQAGGSLRLSCAASGLIFYWNAMGWYRQAPGKERELVAGITSGGDTNYADSVKGRFTISRDNAKNTVYLQMNSLKPEDTAVYDCAAEGFRGYGYWGQGTQVTVSS | low polyreactivity
8 | QVQLVESGGGLVQAGGSLRLSCAASGFTLEFYAMVWYRQAPGKKRELVARITTYGGSTRYADSVKGRFTISRDNAKNTVYLKMNSLKPEDTAVYNCAARGYGYRNVETYGYWGQGTQVTVSS | high polyreactivity
9 | QVQLVESGGGLVQAGGSLRLSCAASGFTFGRYAMGWYRQAPGKERELVATITRTGSTNYADSVKGRFTISRDNAKNTVYLQMNSLKPEDTAVYYCNAGPDRRVSYYRLLDHWGQGTQVTASS | low polyreactivity
10 | QVQLVESGGGLVQAGGSLRLSCAASGIIFYEFTMGWYRQAPGKERELVATISWSGGSTYYADSVKGRFTISRDNAKNTVYLQMNSLQPEDTAVYYCAADFADVQSISPDSAHEYDYWGQGTQVTVSS | low polyreactivity
11 | QVQLVESGGGLVQAGGSLRLSCAPSGGTFLSNVMVWYRQAPGKERELVAAISSRGGSTYFADSVKGRFTISRDNAKNNVYFQMNSLKPVDTAVYYCNVRAAHYKDRQYDYWGQGTQGTVSS | high polyreactivity
12 | QVQLVESGGGLVQAGGSLRLSCAASGRTFRWYTMGWYRQAPGKEREFVAAITWSGSSTNYADSVKGRFTISRDNEKNTVYLQMNSLKPEDTAFYYCAAENRRRRDDYWGQGTQVTVSS | high polyreactivity
13 | QVQLVESGGGLVQAGGSLRLSCAASGNTFGLYAMGWYRQAPGKERELVATITWSVSTYADSVKGRFTISRDNAKNTVYLQMNSLKPEDTAVYYCAATTGPWYWRYDYWGQGTQVTVSS | high polyreactivity
14 | QVQLVESGGGLVQAGGSLRLSCAASGLTFRYYAMGWYRQAPGKERELVATITGSGGSTYYADSVKGRFTISRDNAKNTVYFQMNSLNPEYTAVYYCAATVRVYDYWGQGTQVNVSS | high polyreactivity
15 | QVQLVESGGGLVQAGGSLRLSCAASGLTFGRYAMGWYRQAPGKERELVAVINGSGGNTYYADSVKGRFTISRDNAKNTVYLQMNSLKPEDTAVYYCAARRTVQYTLYYYPDYNYWGQGTQVTVSS | low polyreactivity
16 | QVQLVESGGGLVQAGGSLRLSCAASGRTFYSNAMGWYRQAPGKERELVAAITFGGGSTYYADSVKGRFTISRDNAKNTVYLQMNSLKPEDTAVYYCAAEGYKYRFYYWGQGTQVTVSS | low polyreactivity
17 | QVQLEDSGGGLVQAGGSLRLSCAASGLIFLDYAMGCYRQAPGKERELVAAISRSGGRTYYADSVKGRFTISRDNAKNTVYLQMNIVKPEDTAVYYCNAYQSARKKATASTYDSWGQCTQVTVSS | high polyreactivity
18 | QVQLVESGGGLVQAGGSLRLSCAASGRILRYYTMGWYRQAPGKERELVAAITWSGGSTNYADSVKGRFTISRDYAKNTVYLQMNSLKPEDSEVYYCNADRRKYYFTYGSWGQGTQVTVSS | high polyreactivity
19 | QVQLVESGGGLVQAGGSLRLSCAASGFTFSSYYMGWYRQAPGKERELVAAITSSGDDTYYADSVKGRFTISRDNAKNTVYLQMNSLKPEDTAVYYCAAEYTEGYTHDYGGQGTQVTVSS | low polyreactivity
20 | QVQLVESGGGLVQAGGSLRLSCAASGLTLHGNAMGWYSQAPGKERGLVATITSSGGSTFYADSVKGRFTISRDNAKNTVSLQMNSLKPEDTAVFYCNADAPYSDDYYVRFDYWGQGTQVTVSS | low polyreactivity
21 | QVQLVESGGGLVQAGGSLRISCAASGYIFFGNAMGWYRQAPGKERELVAAIRGRGTSTYYADSVKGRFTISRDNAKNTVYLQMNSLKPEDTAVYYFAADVVRSNFYGTFLYDYDYWGQCTQVTVSS | low polyreactivity
22 | QVQLVESGGGLVQAGGSLRLSCAASGFTFYKNTMGWYRQAPGKERELVAAISSSGSSTYYADSVKGRFTISRDNAKNTVYLQMNSLKPEDTAVYYCAAVYRSWTSYNGRNYWGQGTQVTVSS | high polyreactivity

Row | Sequence | polyreactivity (PSR sort gate)
23 | QVQLVESGGGLVQAGGSLRLSCAASGSTFWYNTMGWYRQAPGKERELVAAITSSGGSTYYADSVKGRFTISRDNAKNTVYLQMNSLKPEDTAVYYCNALHTRTGVKARYYYWGQGTQVTVSS | high polyreactivity
24 | QVQLVESGGGLVQAGGSLRLSCAASGITFPLYAMGWYRQAPGKERELVASITRGGTTNYADSVKGRFTISRDNAKNTVYLQMNSLKPEDTAVYYCAAVVTRERGYDYWGQGTQVTVSS | low polyreactivity
25 | QVQLVESGGGLVQAGGSLRLSCAASGFTFGRYAMGWYRQAPGKERELVATISRSGGRTYYADSVKGRFTISRDIAKKTVYLQMNSLKPEDTAVYYCAADTRNYPRYDYWGQGTQVTVSS | high polyreactivity
26 | QVQLVESGGGLVQAGGRLGLSCAASGRSFPWYTMGWYRQATGKERELVAAISSSGSTTYYADSVNGRFTISRDNAKITVYLQMNSLKPEDTAVYYCNKADPPEYDYWGQGTPVTVSS | high polyreactivity
27 | QVQLVESGGGLFQAGGSLRLSCAASGTTFVRYAMGCYRQAPGKDRQLVAAISSSGATTYYADSVKGRFTISRDNAKNTVYLQMNSLKPEDTEVYYCARLYVKRHGYWGQGSQVTVSS | high polyreactivity
28 | QVQLVESGGGLVQAGGSLRLSCAASGRIFYAYTMGRSRQAPGKERELVAAISGSGSTYYADSVKGRFTISRDNAKNTVYLQMNSLKPEDTAVYYCAADVTGGRKYDYWGQGTQVTVSS | low polyreactivity
29 | QVQLVESGGGLVQAGGSLRLICAASGFIFFSNAMGWYRQAPGKERELVAVIDRATSTYYADSVKGRFTISRDNAKNTFYLQLNSLKPEDTAVYYCNADGEEVYDFNYFLSFKGDYWGQGTQVTVSS | low polyreactivity
30 | QVQVVESGGCLVQAGGSLRLSCAASGRMFRRYAMGWYRQAPGKERELVAAISSGGSTYYADSVKGRFTISRDNAKNTVYLQMNSLKPEDTAVYYCNAKVGAYLNYGYWGQGTQVTVSS | low polyreactivity
31 | QVQLVESGGGLVQAGGSLRFSCAASGRTFYRNVMGWYRQAPGKERELVAVITSGGSTNYADSVKGRFTISRDNAQNTVYLQMNSLKPEDTAVYYCNTALSSRSNKMYYWGQGTQVTVSS | high polyreactivity
32 | QVQLVESGGGLVQAGGSLRLSCAASGSTFSLYAMGWYRQAPGKERELVASITWGGGSTYADSVKGRFTISRDNAKNTVYLQMNSLKPEDTAVYYCARKYRYRVLYDFAYDHWGQGTQVTVSS | low polyreactivity
33 | QVQLVESGGGLVQAGGSLRLSCAASGRILTSNAMGWYRQAPGKERELVAAISWSGGSTYYADSVKGRFTISRDNAKNTVYLQMNSLKPEDTAVYYCAARSIGRAGGYHYWGQGTQVTVSS | low polyreactivity
34 | QVQLVESGGGLVQAGGSLRLSCAASGSTFYYYAMGWYRQAPGKERELVAAITKSRGSTYYADSVKGRFTISRDNAKNTVYLQMNSLKPEDTAVYDCAAYLRSGYKFDYWGQGTQGTVSS | low polyreactivity
35 | QVQLVDSGGGLDQAGGSLRLICDASGSIFWWNAMGWYRQAPGKETELVAAINWSTGRTYYADSVKGRFTISRDNAKNTVYLQMNSLKPEDTAVYYCGADVWTPYLISLKSGYDYWGQGTQLTVSS | low polyreactivity
36 | QVQLVESGGGLVQAGGSLRLSCAASGSIFYVNVMGWYRQAPGKERELVATISSGDTNYADSVKGRFTISRDNAKNTVYLQMNSLKPEDTAVYYCARRRTIPYTLVDYDSWGQGTQVTVSS | low polyreactivity
37 | QVQLVESGGGLVQAGGSLRLSCAASGRILGNNVMGWYRQAPGKERELVAAITSSGGRTYYADSVKGRFTISRDNAKNTVYLQMNSLKPVDTAVYYCAAERRYYGKFNYWGQGTQVTVSS | high polyreactivity
38 | QFQLVESGGGLVQAGGSLRLSCAASGSTFGVYAMGWYRQAPGKERELVATINSGGSTNYADSVKGLFTISRDNAKNTVYLQMNSLKPEDTAVYYCAAGPFWQDFYVYEYDYWGQGTQVTVSS | low polyreactivity
39 | QVQLVESGGGLVQAGGSLRLSCAASGFTFITYAMGGHRQAPGKERELVAAIRTGGGTNYADSVKGRFTISRDNAKNTVYLQMNSLKPEDTAVYYCAKGRQGVSYLTGTYGCRYYWGQGTQVTVSS | low polyreactivity
40 | QVQLVESGGGLVQAGGSLRLSCAASGSIFGIYTMGWYRQAPGKERELVAAIRRSGSTNYADSVKGRFTISRDNAKNTVYLQMNSLKPEDTAVYYCAADALSDEYDYWGQGTQVTVSS | low polyreactivity
41 | QVQLVESGGGLVQAGGSLRLSCAASGSIFLAYAMGWYRQAPGKEREFVAAISFSDGSTYYADSVKGRFTISRDNAKNTVYFQMNSLKPEDTAVYYCNKGASPDDYDYWGQGTQVTVSS | low polyreactivity
42 | QVQLVESGGGLGQAGGSLRLSCAASGRIVSNAMGWYRQAPGKERELVAAISRRGGSTYYADSVKGRFTISRENAKNTVYLQMNSLIPEDTAVYSCASRPFFTYRWYDYWGQGTQVTVSS | high polyreactivity
43 | QVQLVESGGGLVQAGGSLRLSCAASGSTFGNNTMGWNRQSPGKEREFVAAITESGGGTYADSVKGRFTISRDNAKNTVYLQLNSLKPEDTAVYYCAAVWYIWPFAFYDWAQGTQVTVSS | high polyreactivity

Source: the nanobody polyreactivity screen of Harvey et al. (2022)
